Measurements reported in patent publication US20250041339A1 (University of Pennsylvania, published 2025).
Positions count from the first letter of the chain named. Values belong to the binder of their own block, whether it stands above or below them.

Key:
[1] = biological target: T1, tCD45RO_WT (truncated, N-terminally myc-tagged wild-type CD45RO construct) (human, UniProt P08575 1-604); assay: staining of cells expressing truncated CD45 constructs with his-tagged scFv/antibody clones
T1 construct: Expressed from lentivirus on CD45-negative NALM6 cells; also called WT CD45; CD45 WT
T1 sequence: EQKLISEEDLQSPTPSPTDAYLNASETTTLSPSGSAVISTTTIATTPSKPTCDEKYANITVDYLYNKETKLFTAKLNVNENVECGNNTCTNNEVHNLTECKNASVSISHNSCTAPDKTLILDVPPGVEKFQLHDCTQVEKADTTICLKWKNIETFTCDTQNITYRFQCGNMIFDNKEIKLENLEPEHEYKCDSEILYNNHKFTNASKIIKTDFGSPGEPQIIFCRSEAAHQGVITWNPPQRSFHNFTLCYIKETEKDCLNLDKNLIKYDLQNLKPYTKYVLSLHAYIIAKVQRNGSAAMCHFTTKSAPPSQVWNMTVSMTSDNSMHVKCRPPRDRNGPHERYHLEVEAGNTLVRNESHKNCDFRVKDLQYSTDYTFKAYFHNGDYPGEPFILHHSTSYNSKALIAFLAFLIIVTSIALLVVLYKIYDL
Description: (§1) With the information obtained from the crystal structure (and given that FN domains are evolutionary conserved and stable structures), and without wishing to be bound by theory, it was hypothesized that the subdomains which are recognized by the CAR45-T cells can be narrowed down by sequentially truncating the extracellular domain. The constructs to generate the truncated CD45 constructs were de novo synthesized (FIG. 24A). To verify surface expression of the truncated CD45 constructs, all constructs were myc-tagged at the N-terminus to allow surface staining against the truncated CD45 expressing cell using anti-Myc antibodies followed by readout via flowcytometry. Cells expressing the truncated CD45 constructs were stained with recombinantly expressed, his-tagged scFv/antibody clones from which the CARs were made off. Positive staining for the his tag therefore only occurs when the scFv/antibody clones can bind truncated CD45.

[2] = biological target: T2, tCD45_RO_T8A (CD45RO with Thr8 changed to alanine) (human, UniProt P08575 1-604); assay: antibody staining (figure cited in the text as FIG. 42, left)
T2 construct: The entry already carries the substitution, the signal peptide and the myc tag
T2 sequence: T1 sequence with T18A

[3] = biological target: T1, tCD45RO_WT (truncated, N-terminally …); assay: flow cytometry, his-tag staining of cells expressing myc-tagged truncated CD45 constructs
Description: as §1

B1: recombinantly expressed, his-tagged scFv/antibody clone Gap8.3 (scFv, V domains shown)
VH: EVQLQQSGPELVKTGASVKISCKASGYSFTGYFIHWVKQSHGKSLEWIGYISCYNGATSYNQKFKGKATFTVDTSSSTAYMQFNSVTSEDSAVYYCVRNYYGNLDAMDYWGQGTSVTVSS
VL: DIVMTQSHKFMSTSVGDRVSITCKASQDVSTAVAWYQQKPGQSPKILIYSASYRYTGVPDRFTGSGSGTDFTFTISSVQAEDLAVYYCQQHYSTPRTFGGGTKLEIK
notes: Soluble his-tagged scFv/antibody clone used to stain cells expressing truncated CD45; also called Gap8.3 scFv
binding result [1]: binds

B2: recombinantly expressed, his-tagged scFv/antibody clone 9.4 (scFv, V domains shown)
VH: QVQLQQLGAELARPGASVKMSCKASGYTFTSYSIQWVKQRPGQGLEWIGYINPSSGYIKYNQHFRDRATLTADRSSSTAYMQLSSLTSEDSAVYYCARGNSGSFDYWGQGTTLTVSS
VL: DIVMTQAAPSVPVTPGESLSISCRSSKSLLHSSGITYLYWFLQRPGQSPQLLIYRMSNLASGVPDRFSGSGSGTAFTLRISRVEAEDVGVYYCMQHLEYPFTFGGGTKLEIK
notes: Soluble his-tagged scFv/antibody clone used to stain cells expressing truncated CD45; also called 9.4 scFv
binding result [1]: binds

B4: recombinantly expressed, his-tagged scFv from the BC8 clone (scFv, V domains shown)
VH: QVQLVESGGGLVQPGGSLKLSCAASGFDFSRYWMSWVRQAPGKGLEWIGEINPTSSTINFTPSLKDKVFISRDNAKNTLYLQMSKVRSEDTALYYCARGNYYRYGDAMDYWGQGTSVTVS
VL: DIVLTQSPASLAVSLGQRATISCRASKSVSTSGYSYLHWYQQKPGQPPKLLIYLASNLESGVPARFSGSGSGTDFTLNIHPVEEEDAATYYCQHSRELPFTFGSGTKLEIK
notes: Soluble his-tagged scFv used to stain cells; also called BC8 scFv
binding result [3]: binds

Further lines, results first:

binding result [2]: no binding
B3: antibody clone UCHL-1 (CD45RO-specific) (antibody, V domains shown)
VH: QITLKESGPGILQPSQTLSLTCSFSGFSLTTYGIGVGWIRQPPGKGLEWLTHIWWNDNKYYNTALRSRLTISKDSSNNQVLLKIANVDTADTATYYCLYGYTYWGQGTLVTVSA
VL: DVVMTQTPLSLPVSLGDQASISCRSSQSLLYSNGNTYLHWYLQKPGQSPKLLIYKLSNRFSGVPDRFSGSGSGTDFTLKISRVEAEDLGVYFCSQSTHVPWTFGGGTKLEIK
notes: also called muUCHL

binding result [1]: binds
B5: recombinantly expressed, his-tagged scFv/antibody clone 4B2 (scFv, V domains shown)
VH: GVQLQESGAELARPGASVKMSCKASGYTFTSYTMQWVKQRPGQGLEWIGYINPSSGYIKYNQKFKDKVTLTADKSSTTAYMQLSRLTSEDSAVYYCARRGSYFFDFWGQGTSVTVSS
VL: DIVITQDELSNPVTSGESVSISCRSSKSLLYKDGKTYLNWFLQRPGQSPQLLIYLMSTRASGVSDRFSGSGSGTDFTLEISRVKAEDVGVYYCQQLVEYPFTFGGGTKLEVK
notes: Soluble his-tagged scFv/antibody clone used to stain cells expressing truncated CD45; also called 4B2 scFv
